Target: 6His-CaM7 (Arabidopsis thaliana), P59220
Test: ITC at 25 C, peptide titrated into 6His-CaM7, 1 mM Ca2+

stoichiometry (peptide per CaM7): 1
Binder: DQQQNHDSSSMRSTRLQRFLSL (modifications not checked) [CBD peptide]
